Biological target: trimeric SARS-CoV-2 spike (residues 1-1213), 986PP987, furin sites disrupted, C-terminal foldon and hexahistidine tag (SARS-CoV-2) (UniProt P0DTC2)

With “2B04 Fab (papain-cleaved Fab form of 2B04)” the total buried surface area of the complex was 656 Å2.

— WO2021212049A2
